Key:
[1] = target: T1, Core_IIII-es_KKEE; experiment: two-hybrid library CCmax; details: mean of both orientations;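 further: natural log of median RNA to DNA barcode read ratio; higher means stronger binding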
T1 chain: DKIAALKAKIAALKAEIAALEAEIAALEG

[2] = target: T2, 4H3162-bA; experiment: two-hybrid library CCNG1;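 further: natural log of median RNA to DNA barcode read ratio; higher means stronger binding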
T2 chain: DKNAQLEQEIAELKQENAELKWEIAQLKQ

[3] = target: T3, 4H3175-bA; experiment: two-hybrid library CCNG1;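 further: natural log of median RNA to DNA barcode read ratio; higher means stronger binding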
T3 chain: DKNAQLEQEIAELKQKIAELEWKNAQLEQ

[4] = target: T4, 4H3277-bA; experiment: two-hybrid library CCNG1;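 further: natural log of median RNA to DNA barcode read ratio; higher means stronger binding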
T4 chain: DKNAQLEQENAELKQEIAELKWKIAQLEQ

[5] = target: T5, 4H3298-bA; experiment: two-hybrid library CCNG1
T5 chain: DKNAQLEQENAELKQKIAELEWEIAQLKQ

[6] = target: T6, 4H3462-bA; experiment: two-hybrid library CCNG1
T6 chain: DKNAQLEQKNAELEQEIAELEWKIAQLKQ

[7] = target: T7, 4H348-bA; experiment: two-hybrid library CCNG1
T7 chain: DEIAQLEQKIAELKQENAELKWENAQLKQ

[8] = target: T8, 4H3497-bA; experiment: two-hybrid library CCNG1
T8 chain: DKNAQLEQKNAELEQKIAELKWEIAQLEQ

[9] = target: T9, 4H3613-bA; experiment: two-hybrid library CCNG1
T9 chain: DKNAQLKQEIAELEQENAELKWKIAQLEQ

[10] = target: T10, 4H3628-bA; experiment: two-hybrid library CCNG1
T10 chain: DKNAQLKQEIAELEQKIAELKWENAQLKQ

[11] = target: T11, 4H3631-bA; experiment: two-hybrid library CCNG1
T11 chain: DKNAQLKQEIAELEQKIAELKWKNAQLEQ

[12] = target: T12, 4H3926-bA; experiment: two-hybrid library CCNG1
T12 chain: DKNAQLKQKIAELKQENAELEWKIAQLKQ

[13] = target: T13, 4H591-bA; experiment: two-hybrid library CCNG1
T13 chain: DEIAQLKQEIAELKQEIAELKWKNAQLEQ

[14] = target: T14, 4H626-bA; experiment: two-hybrid library CCNG1
T14 chain: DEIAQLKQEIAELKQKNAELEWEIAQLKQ

[15] = target: T15, 4H906-bA; experiment: two-hybrid library CCNG1
T15 chain: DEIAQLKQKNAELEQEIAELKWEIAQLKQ

[16] = target: T16, P10A-bS; experiment: two-hybrid library CCNG1
T16 chain: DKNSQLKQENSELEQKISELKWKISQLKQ

[17] = target: T17, P2bHq; experiment: two-hybrid library CCNG1
T17 chain: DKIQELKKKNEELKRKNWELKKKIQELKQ

[18] = target: T18, Core_IIII-es_KEKK; experiment: two-hybrid library CCmax; details: mean of both orientations
T18 chain: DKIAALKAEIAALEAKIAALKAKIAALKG

DEIAALEAEIAALEAKIAALKAKIAALKG [Core_IIII-es_EEKK]
interaction score [1]: 1.78

DKNAQLEQEIAELKQENAELKWEIAQLKQ [4H3162-bA]
interaction score [2]: 1.11
interaction score [3]: -0.314
interaction score [4]: -0.654
interaction score [5]: -0.43
interaction score [6]: -0.481
interaction score [7]: -2.08
interaction score [8]: -0.885
interaction score [9]: 0.452
interaction score [10]: -0.274
interaction score [11]: -1.48
interaction score [12]: 1.8
interaction score [13]: -1.2
interaction score [14]: -0.331
interaction score [15]: -1.01
interaction score [16]: -0.255
interaction score [17]: -0.679

DEIAALEAKIAALKAEIAALEAEIAALEG [Core_IIII-es_EKEE]
interaction score [18]: 1.78
